The target of one experiment is T1, ecto-CRT on MC-38 cells (Mus musculus, UniProt P14211).
T1 sequence (P14211 18-416): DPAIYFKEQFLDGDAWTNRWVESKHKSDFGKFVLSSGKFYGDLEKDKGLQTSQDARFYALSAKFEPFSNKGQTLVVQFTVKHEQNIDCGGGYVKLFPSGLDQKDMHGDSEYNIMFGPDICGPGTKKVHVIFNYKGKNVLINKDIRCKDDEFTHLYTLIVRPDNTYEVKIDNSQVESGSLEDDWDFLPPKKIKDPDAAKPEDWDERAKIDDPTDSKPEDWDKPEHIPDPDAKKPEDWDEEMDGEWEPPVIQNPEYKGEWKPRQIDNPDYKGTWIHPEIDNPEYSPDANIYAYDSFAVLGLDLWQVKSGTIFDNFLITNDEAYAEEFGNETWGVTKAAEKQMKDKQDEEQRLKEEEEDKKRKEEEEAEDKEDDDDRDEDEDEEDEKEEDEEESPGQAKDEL
The experiment can be described thus: Flow cytometry binding to anticancer-agent-treated MC-38 cells. Also on record: endogenous in cells; host or cells: MC-38 mouse colon cancer cells (in culture). The class given is cell-based. As to conditions: for binding to cells: 100 nM protein; for binding after pretreatment with anti-CRT antibodies: MC-38 cells treated with DOX or MTX. The procedure: (§1) Cells were cultured at 37° C. in DMEM medium supplemented with 10% FBS and 100 U of streptomycin/penicillin in an atmosphere of 5% CO2. Cells were treated with each anticancer drug [3 μM methotrexate (MTX), 25 μM […] (DOX), or 15 μM gemcitabine (GEM)] to induce apoptosis (Y. Zhang, et al., Cancers, 13 (11), 2801, 2021). After 4 h of incubation, the cells were scraped and detached from the plate. The cells (10^5) were fixed with 1% PFA for 15 min and then treated with 100 nM of PASylated recombinant proteins for 1 h on ice. After washing five times with cold PBS buffer containing 0.1% Tween-20 (T-PBS), the cells were incubated with anti-His tagged monobodies (diluted to 1:1000) for 1 h and then treated with Alexa Fluor 488-conjugated secondary antibodies (5 μg/mL) for 1 h. Fluorescence signals were detected by FACSCanto II Flow Cytometer (BD Biosciences, USA). For blocking experiments, cells were first incubated with anticancer agents for 4 h and fixed with 1% PFA. Cells were then incubated with anti-CRT antibodies (diluted to1: 400) for 1 h to mask ecto-CRT. Cells were stained with PASylated recombinant proteins and followed the same procedure as described above.

A further experiment addresses T2, ecto-CRT on CT-26 cells (Mus musculus, UniProt P14211).
T2 sequence (P14211 18-416): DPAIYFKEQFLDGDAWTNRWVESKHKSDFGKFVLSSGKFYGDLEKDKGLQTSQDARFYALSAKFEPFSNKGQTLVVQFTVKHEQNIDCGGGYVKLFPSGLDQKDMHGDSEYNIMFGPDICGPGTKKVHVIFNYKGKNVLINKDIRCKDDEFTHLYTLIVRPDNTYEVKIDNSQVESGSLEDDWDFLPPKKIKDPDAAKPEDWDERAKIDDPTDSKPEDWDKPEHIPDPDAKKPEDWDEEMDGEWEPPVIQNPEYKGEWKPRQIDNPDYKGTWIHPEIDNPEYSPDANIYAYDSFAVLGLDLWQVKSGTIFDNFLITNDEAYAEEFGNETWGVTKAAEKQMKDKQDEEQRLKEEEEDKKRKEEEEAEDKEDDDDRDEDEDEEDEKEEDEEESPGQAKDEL
The experiment can be described thus: Flow cytometry binding to anticancer-agent-treated CT-26 cells. The format is cell-based. As to conditions: for binding to cells: 100 nM protein; for binding after pretreatment with anti-CRT antibodies: CT-26 cells treated with DOX or MTX. On the procedure:
as §1
(In general: A flow cytometer gives signals particle by particle.)

The target in experiment [1] is T3, recombinant calreticulin protein (rCRT) (Homo sapiens, UniProt P27797).
T3 construct: purchased Abcam
T3 sequence (P27797 18-417): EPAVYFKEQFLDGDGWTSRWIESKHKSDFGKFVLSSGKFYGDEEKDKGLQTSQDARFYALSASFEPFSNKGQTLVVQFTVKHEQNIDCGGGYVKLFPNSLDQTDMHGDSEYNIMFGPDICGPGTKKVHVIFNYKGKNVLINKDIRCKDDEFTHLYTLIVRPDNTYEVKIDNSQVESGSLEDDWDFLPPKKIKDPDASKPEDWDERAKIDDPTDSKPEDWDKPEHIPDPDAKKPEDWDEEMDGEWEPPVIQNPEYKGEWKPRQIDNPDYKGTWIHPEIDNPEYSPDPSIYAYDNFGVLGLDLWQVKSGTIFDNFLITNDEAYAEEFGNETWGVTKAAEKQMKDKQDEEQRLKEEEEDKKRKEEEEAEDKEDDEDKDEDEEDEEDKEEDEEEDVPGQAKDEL
The experiment can be described thus: Binding affinity of recombinant proteins for CRT by ELISA. As to conditions: for Kd: ELISA, read-out: dissociation constant (Kd) for CRT; for affinity for CRT relative to single CRT3/CRT4 monobody: compared with monobodies of Zhang et al. 2021. The procedure: The affinity of the recombinant protein for CRT was measured by enzyme-linked immunosorbent analysis (ELISA) (J. D. Beatty, et al., Journal of immunological methods 100(1-2), 173-179, 1987). In brief, 100 μL of PASylated CRT-targeted L-ASNases coated onto 96-well microplates (0-10 μM/well) overnight at 4° C. Unbound proteins were removed by aspiration from the wells and 100 μL of 10 μM rCRT proteins were added to each well and incubated for 2 h at room temperature. After rCRTs were removed, rabbit anti-CRT antibodies (diluted to 1:500) were added to each well and incubated for 2 h at room temperature. The antibodies were removed by aspiration, and the wells were washed five times with T-PBS. Then, biotin-conjugated anti-rabbit secondary antibodies (diluted to 1:1000) were added and incubated for 1 h. After washing with T-PBS, 100 μL of avidin-HRP (diluted to 1:250) was added to each well and incubated for 30 minutes at room temperature. After aspiration and washing five times, 100 μL of 1×3,3′,5,5′-tetramethylbenzidine (TMB) buffer (Thermo Fisher Scientific, USA) was added to each well to form a […] reaction product. After 15 minutes, 50 μL of 0.5 M H2SO4 solution was added to each well to stop the chromogenic reaction. The amount of colorimetric product was evaluated as the optical density value at 450 nm (OD450) by a SpectraMax M2 microtiter plate reader (Molecular Devices, USA).
On the technique in general: An ELISA detects its analyte on a solid surface through an enzyme-linked reagent.

Another experiment deals with MC-38 tumor. The experiment can be described thus: In vivo anti-cancer efficacy in MC-38 tumor-bearing mice. More on the design: species or system C57BL/6 mice. As to conditions: summary statement. On the procedure:
CT-26 and MC-38 tumor cells (106 in 100 μL PBS) were implanted subcutaneously into the right flanks of 6-week-old BALB/c and C57BL/6 female mice (Orient company, Korea), respectively. When the tumors reached about 100 mm^3, the tumor-bearing mice were injected intraperitoneally with anticancer agents (15 mg/kg GEM, 10 mg/kg DOX or 2 mg/kg MTX) three times every 2 days. Simultaneously, the mice were injected intravenously with the PASylated recombinant proteins of the present invention five times every 2 days. The length (L), width (W), and height (H) of each tumor were recorded every 3 days using a digital caliper, and the tumor volume (mm3) was calculated using the following formula (L×H×W)/2. Mice were euthanized when tumors were ˜1,500 mm^3 and all animal experiments were performed in accordance with the general principles and procedures outlined in the National Institutes of Health Guidelines, and all protocols were approved by the Chonnam National University Animal Care and Use Committee (permit number: HCRL 16-001).

Where [2] appears, read: MC-38 cells treated with DOX and MTX.
Setting [3] is: MC-38 cells with GEM or PBS treatment.
Setting [4] is: CT-26 cells treated with DOX and MTX.
The mark [5] stands for this setting: CT-26 cells with GEM or PBS treatment.

The source of these data is patent publication US20250376507A1, “NOVEL TUMOR ANTIGEN-TARGETING ANTICANCER AGENT” (INDUSTRY FOUNDATION OF CHONNAM NATIONAL UNIVERSITY, priority 2022, published 2025).

B1: CRT3LP: PASylated L-ASNase fused with CRT-targeting CRT3 monobody at N-terminus and PAS200 tag plus His6 tag at C-terminus (protein)
chain: MASVSDVPRDLEVVAATPTSLLISWKLGFFKRYYRITYGETGGNSPVQEFTVPGSKSTATISGLKPGVDYTITVYAVTGQPMYGQPMYPISINYRTSGGGGSGGGGSEFLPNITILATGGTIAGGGDSATKSNYTAGKVGVENLVNAVPQLKDIANVKGEQVVNIGSQDMNDDVWLTLAKKINTDCDKTDGFVITHGTDTMEETAYFLDLTVKCDKPVVMVGAMRPSTSMSADGPFNLYNAVVTAADKASANRGVLVVMNDTVLDGRDVTKTNTTDVATFKSVNYGPLGYIHNGKIDYQRTPARKHTSDTPFDVSKLNELPKVGIVYNYANASDLPAKALVDAGYDGIVSAGVGNGNLYKTVFDTLATAAKNGTAVVRSSRVPTGATTQDVEVDDAKYGFVASGTLNPQKARVLLQLALTQTKDPQQIQQIFNQYGSSGGGGSGGGGSASPAAPAPASPAAPAPSAPAASPAAPAPASPAAPAPSAPAASPAAPAPASPAAPAPSAPAASPAAPAPASPAAPAPSAPAASPAAPAPASPAAPAPSAPAASPAAPAPASPAAPAPSAPAASPAAPAPASPAAPAPSAPAASPAAPAPASPAAPAPSAPAASPAAPAPASPAAPAPSAPAASPAAPAPASPAAPAPSAPAAGSHHHHHH
With B1, the binding to cells result is reported as “efficiently bound” in the experiment with ecto-CRT on MC-38 cells (setting [2]), “not” with ecto-CRT on MC-38 cells (setting [3]), “efficiently bound” in the experiment with ecto-CRT on CT-26 cells (setting [4]) and “not” with ecto-CRT on CT-26 cells (setting [5]). Besides, the “binding after pretreatment with anti-CRT antibodies” value with ecto-CRT on MC-38 cells and in the experiment with ecto-CRT on CT-26 cells was “significantly inhibited” each time. Also, the Kd (usually the free concentration of one partner at which half of the binding sites on the other are occupied at equilibrium, for simple one-to-one binding) in experiment [1] worked out at 2.07 ± 0.173 nM. Also, in experiment [1], the “affinity for CRT relative to single CRT3/CRT4 monobody” value is given as “four times higher”. Besides, in the experiment on MC-38 tumor, the “tumor growth in mice treated with ICD-inducing drugs” value is “significantly inhibiting tumor growth”.

B2: CRT4LP: PASylated L-ASNase fused with CRT-targeting CRT4 monobody at N-terminus and PAS200 tag plus His6 tag at C-terminus (protein)
chain: MASVSDVPRDLEVVAATPTSLLISWGQPMYGQPMYYYRITYGETGGNSPVQEFTVPGSKSTATISGLKPGVDYTITVYAVTKLGFFKRPISINYRTSGGGGSGGGGSEFLPNITILATGGTIAGGGDSATKSNYTAGKVGVENLVNAVPQLKDIANVKGEQVVNIGSQDMNDDVWLTLAKKINTDCDKTDGFVITHGTDTMEETAYFLDLTVKCDKPVVMVGAMRPSTSMSADGPFNLYNAVVTAADKASANRGVLVVMNDTVLDGRDVTKTNTTDVATFKSVNYGPLGYIHNGKIDYQRTPARKHTSDTPFDVSKLNELPKVGIVYNYANASDLPAKALVDAGYDGIVSAGVGNGNLYKTVFDTLATAAKNGTAVVRSSRVPTGATTQDVEVDDAKYGFVASGTLNPQKARVLLQLALTQTKDPQQIQQIFNQYGSSGGGGSGGGGSASPAAPAPASPAAPAPSAPAASPAAPAPASPAAPAPSAPAASPAAPAPASPAAPAPSAPAASPAAPAPASPAAPAPSAPAASPAAPAPASPAAPAPSAPAASPAAPAPASPAAPAPSAPAASPAAPAPASPAAPAPSAPAASPAAPAPASPAAPAPSAPAASPAAPAPASPAAPAPSAPAASPAAPAPASPAAPAPSAPAAGSHHHHHH
In the case of B2, the binding to cells entry with ecto-CRT on MC-38 cells (setting [2]) is “efficiently bound”; with ecto-CRT on MC-38 cells (setting [3]), “not”; with ecto-CRT on CT-26 cells (setting [4]), “efficiently bound”; with ecto-CRT on CT-26 cells (setting [5]), “not”. The “binding after pretreatment with anti-CRT antibodies” value in the experiment with ecto-CRT on MC-38 cells and with ecto-CRT on CT-26 cells was “significantly inhibited” in each case. Further, in experiment [1], the Kd was 2.3 ± 0.166 nM. Further, in experiment [1], the “affinity for CRT relative to single CRT3/CRT4 monobody” value is “four times higher”. Besides, the “tumor growth in mice treated with ICD-inducing drugs” value with MC-38 tumor is on record as “significantly inhibiting tumor growth”.
